Assay results from publication PMC11719849, “Allosteric modulation of the Lon protease via ssDNA binding and local charge changes” (The Journal of Biological Chemistry, 2024).

Substrate: Nc1ncnc2c1ncn2[C@@H]1O[C@H](COP(=O)(O)OP(=O)(O)OP(=O)(O)O)[C@@H](O)[C@H]1O
Test: coupled NADH fluorescence ATPase assay
Type: biochemical, Caulobacter vibrioides
Details: no ssDNA, FITC-casein present, 0.1 μM Lon6, Mg2+, pH 8.0, 30 °C
From the text: coupled NADH fluorescence ATPase assay on Lon

B1: Lon (Caulobacter vibrioides NA1000) (protein)
chain: MSELRTLPVLPLRDIVVFPHMVVPLFVGRDKSVRALEEVMRGDKQILLVTQKNSADDDPAPGDIFEVGVLATVLQLLKLPDGTVKVLVEGKARAAVVSFTDQESYYEAQIGEVSEDDGAGPEAEALSRAVVEQFENYVKLNKKVPPEALASIPQIAEPGKLADSIAAHLSVKIGDKQNLLEIFDVVKRLEKVFALMEGEISVLQVEKKIRSRVKRQMEKTQREYYLNEQMKAIQRELGDPDDARDELIDLEKRIKKTKLSKEARTKAESELKKLRNMSPMSAESTVVRNYLDWLLSIPWGKAKTKKIDLVESEGILDADHYGLEKVKERILEYLAVQARTNSLKGPILCLVGPPGVGKTSLGKSIAKATGREFVRMSLGGVRDEAEIRGHRRTYIGSMPGKVVQSMKKAKTTNAFVLLDEIDKMGSDYRGDPASALLEVLDPSQNSTFGDHYLEVDYDLSQVMFVTTANSLNMPQPLLDRMEIIRIPGYTEDEKLEIAKRHILPKLAKDHGLKPAEFIVPDKAIRDLIRYYTREAGVRSLERELGALARKTVRDLAREKVASITIDDERLAKYAGVKKYRYGETDEVDQVGIVTGLAWTEFGGDILTIEAVKMPGKGRMQITGNLKDVMKESIAAANSYVRSRALQFGIKPPVFEKTDVHIHVPDGATPKDGPSAGIAMALAMVSVLTGIPIRKDIAMTGEITLRGRVTAIGGLKEKLLAALRSGVKTVLIPQENEKDLADVPQTVKDGLEIIPVSTVDEVLKHALTGPLTPVEWNEAEEPITTSAKKDDGDSDAMLTH
notes: Caulobacter Lon from pBAD33-Lon, purified on hydroxyapatite and MonoQ, no tag mentioned
With B1 the Km (Hill fit n 1.2, brackets 95% CI) was 92[67–135] μM.

B2: Lon (Caulobacter vibrioides NA1000; K301A/K303A/K305A/K306A) (protein)
chain: MSELRTLPVLPLRDIVVFPHMVVPLFVGRDKSVRALEEVMRGDKQILLVTQKNSADDDPAPGDIFEVGVLATVLQLLKLPDGTVKVLVEGKARAAVVSFTDQESYYEAQIGEVSEDDGAGPEAEALSRAVVEQFENYVKLNKKVPPEALASIPQIAEPGKLADSIAAHLSVKIGDKQNLLEIFDVVKRLEKVFALMEGEISVLQVEKKIRSRVKRQMEKTQREYYLNEQMKAIQRELGDPDDARDELIDLEKRIKKTKLSKEARTKAESELKKLRNMSPMSAESTVVRNYLDWLLSIPWGAAATAAIDLVESEGILDADHYGLEKVKERILEYLAVQARTNSLKGPILCLVGPPGVGKTSLGKSIAKATGREFVRMSLGGVRDEAEIRGHRRTYIGSMPGKVVQSMKKAKTTNAFVLLDEIDKMGSDYRGDPASALLEVLDPSQNSTFGDHYLEVDYDLSQVMFVTTANSLNMPQPLLDRMEIIRIPGYTEDEKLEIAKRHILPKLAKDHGLKPAEFIVPDKAIRDLIRYYTREAGVRSLERELGALARKTVRDLAREKVASITIDDERLAKYAGVKKYRYGETDEVDQVGIVTGLAWTEFGGDILTIEAVKMPGKGRMQITGNLKDVMKESIAAANSYVRSRALQFGIKPPVFEKTDVHIHVPDGATPKDGPSAGIAMALAMVSVLTGIPIRKDIAMTGEITLRGRVTAIGGLKEKLLAALRSGVKTVLIPQENEKDLADVPQTVKDGLEIIPVSTVDEVLKHALTGPLTPVEWNEAEEPITTSAKKDDGDSDAMLTH
notes: as for B1
For B2, the Km (Lon4A, Hill fit n 1.2, brackets 95% CI) was 206[134–707] μM.

B3: Lon (Caulobacter vibrioides NA1000; K301E/K303E/K305E/K306E) (protein)
chain: MSELRTLPVLPLRDIVVFPHMVVPLFVGRDKSVRALEEVMRGDKQILLVTQKNSADDDPAPGDIFEVGVLATVLQLLKLPDGTVKVLVEGKARAAVVSFTDQESYYEAQIGEVSEDDGAGPEAEALSRAVVEQFENYVKLNKKVPPEALASIPQIAEPGKLADSIAAHLSVKIGDKQNLLEIFDVVKRLEKVFALMEGEISVLQVEKKIRSRVKRQMEKTQREYYLNEQMKAIQRELGDPDDARDELIDLEKRIKKTKLSKEARTKAESELKKLRNMSPMSAESTVVRNYLDWLLSIPWGEAETEEIDLVESEGILDADHYGLEKVKERILEYLAVQARTNSLKGPILCLVGPPGVGKTSLGKSIAKATGREFVRMSLGGVRDEAEIRGHRRTYIGSMPGKVVQSMKKAKTTNAFVLLDEIDKMGSDYRGDPASALLEVLDPSQNSTFGDHYLEVDYDLSQVMFVTTANSLNMPQPLLDRMEIIRIPGYTEDEKLEIAKRHILPKLAKDHGLKPAEFIVPDKAIRDLIRYYTREAGVRSLERELGALARKTVRDLAREKVASITIDDERLAKYAGVKKYRYGETDEVDQVGIVTGLAWTEFGGDILTIEAVKMPGKGRMQITGNLKDVMKESIAAANSYVRSRALQFGIKPPVFEKTDVHIHVPDGATPKDGPSAGIAMALAMVSVLTGIPIRKDIAMTGEITLRGRVTAIGGLKEKLLAALRSGVKTVLIPQENEKDLADVPQTVKDGLEIIPVSTVDEVLKHALTGPLTPVEWNEAEEPITTSAKKDDGDSDAMLTH
notes: as for B1
In the case of B3, the Km (Lon4E, Hill fit n 1.6, brackets 95% CI) is reported as 28[23–28] μM.
